Test results as given in patent US20220290113A1.

Biological target: Plasmid-expressed Nme2Cas9 (human-codon-optimized, with NLSs and 3xHA tag), expressed in HEK293T cells (Neisseria meningitidis strain Del1444)
Assay: cell-based or functional assay
Details: scale: mass ratio of Acr plasmid to Nme2Cas9 plasmid

Substance: AcrIIC1Nme
- dose dependence of Acr inhibition of Nme2Cas9 genome editing: mass ratio of cotransfected Acr and Nme2Cas9 plasmids giving full inhibition: 2

Substance: AcrIIC4Hpa
- dose dependence of Acr inhibition of Nme2Cas9 genome editing: mass ratio of cotransfected Acr and Nme2Cas9 plasmids giving full inhibition: 1
